US20200172620A1

Assays:
[1] = target: human CD8 on cells (FACS) (human) (UniProt P01732); assay: FACS
[2] = target: human CD8 (as used in SPR) (human) (UniProt P01732); assay: SPR
Chain of human CD8 (as used in SPR) (human) (P01732 22-182): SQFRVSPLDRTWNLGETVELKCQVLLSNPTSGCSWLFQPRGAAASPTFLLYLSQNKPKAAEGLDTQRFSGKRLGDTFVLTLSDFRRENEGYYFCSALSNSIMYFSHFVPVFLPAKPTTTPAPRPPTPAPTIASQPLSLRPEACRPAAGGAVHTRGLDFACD

Chain of human CD8 on cells (FACS) (human) (P01732 22-235): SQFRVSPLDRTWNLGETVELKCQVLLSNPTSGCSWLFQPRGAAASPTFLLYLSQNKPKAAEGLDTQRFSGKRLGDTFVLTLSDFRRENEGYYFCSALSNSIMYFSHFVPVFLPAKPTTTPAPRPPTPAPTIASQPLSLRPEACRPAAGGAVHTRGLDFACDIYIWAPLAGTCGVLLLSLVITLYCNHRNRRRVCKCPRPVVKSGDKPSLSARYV

B1: OKT8 (antibody, from another filing, V domains shown)
VH: EVQLQQSGAELVKPGASVKLSCTASGFNIKDTYIHFVRQRPEQGLEWIGRIDPANDNTLYASKFQGKATITADTSSNTAYMHLCSLTSGDTAVYYCGRGYGYYVFDHWGQGTTLTVSS
VL: DVQINQSPSFLAASPGETITINCRTSRSISQYLAWYQEKPGKTNKLLIYSGSTLQSGIPSRFSGSGSGTDFTLTISGLEPEDFAMYYCQQHNENPLTFGAGTKLELK
With B1 the Kd [1] was 20 nM, the Kd [2] was 13 nM and the Ratio of KD huOKT8.v1/KD variant for binding to huCD8 [2] was 1 X.
